One may read the stoichiometry N as the number of molecules, sites or subunits per partner or assembly.

The record followed here is paper PMC10986000.

Experiment [1] deals with His-PrsA truncated mutant D3 (amino acids 1 to 146 and 251 to 320; PPIase domain deleted) (S. aureus HG001). Description: cross-linking; E. coli BL21(DE3) cells expressing His-PrsA, D3 or D4 treated with 1% formaldehyde, 5 min, room temperature, 0.1 M sodium phosphate pH 6.8; His-tagged proteins purified on Ni-NTA; SDS-PAGE after 37 °C or 95 °C, Coomassie, immunoblot, LC-MS/MS of bands. For orientation: In western blotting, separated proteins are transferred to a membrane and probed.

The target in experiment [2] is full-length His-tagged PrsA (amino acid 1 to 320) (S. aureus HG001). The experiment is described as above.
In experiment [3] the target is protein A (SpA) on the surface of S. aureus HG001 (S. aureus (endogenous in HG001)) (UniProt P02976). Description: flow cytometry on cells; about 10^5 CFU S. aureus HG001 (also HG001ΔprsA and HG001ΔprsA(pGHL-PrsA)) in 2% BSA-PBS incubated with mouse IgG at 37 °C for 30 min, then FITC-conjugated anti-mouse IgG at 4 °C for 30 min; percent bound relative to the unstained population.
Chain of UniProt P02976 (P02976 37-485): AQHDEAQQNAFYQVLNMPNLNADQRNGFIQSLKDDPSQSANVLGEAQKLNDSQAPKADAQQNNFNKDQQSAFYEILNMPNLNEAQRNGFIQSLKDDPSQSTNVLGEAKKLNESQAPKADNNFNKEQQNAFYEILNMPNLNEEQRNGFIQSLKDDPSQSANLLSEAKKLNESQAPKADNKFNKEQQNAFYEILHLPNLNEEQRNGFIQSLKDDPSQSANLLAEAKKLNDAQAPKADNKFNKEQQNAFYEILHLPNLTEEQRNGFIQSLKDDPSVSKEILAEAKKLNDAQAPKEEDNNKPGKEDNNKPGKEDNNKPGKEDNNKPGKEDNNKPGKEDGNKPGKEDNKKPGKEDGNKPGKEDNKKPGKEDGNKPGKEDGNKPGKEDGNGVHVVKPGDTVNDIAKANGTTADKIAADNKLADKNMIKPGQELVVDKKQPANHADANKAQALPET

In the case of “His-PrsA truncated mutant D3 (amino acids 1 to 146 and 251 to 320; PPIase domain deleted) (domain or fragment)”, the stoichiometry N in experiment [1] is 2.
Substance “full-length His-tagged PrsA (amino acid 1 to 320) (natural protein)” showed a stoichiometry N in experiment [2] of 2.
With mouse immunoglobulin IgG, the percent of S. aureus binding to IgG in experiment [3] was 41.8%.
